Data: the DeepSol protein solubility set

Assay: soluble on expression in E. coli; label from the status in PepcDB or PDB records
With “MVQLDRFEILFNNPEQAYFAGQEISGKVIIENKEPKKVNEILLELKGRARTYWTKHSGKSRKHCSHSEPYFLEQFNPGYTHKFTVVKDGKEKERILPAGIHQVPFSYTLPKSLPSSFEGEFGHIRYTCKAICERPWDFDIVSRKAFTVVGIEDINSDPKLNEPATCVESNHAVTFCCRSAGSVTGEIRISKCGYTPGEKIDVSFKVINLSSKTRTTALRFVQQTTYKAKTFAGHEHIKNVVRVISKIDKGEVPGGSTTEWQEESITIPSLPPKLGKCKILSVTYSVELEVEQTLTVPCPIVIGSIPQLSQLLIHSKQSVQSAGNGSLPKSSIKDSPPKWDSESCVQVTITDESGQLVEELGNEMEALLSARKRVRMPSSILSELYPTMPSPYYKESFFGASDISEEKEQAQFGEASFAPKYPFYTD” the “soluble on expression in E. coli” value was “not soluble”. In the case of “SGKLHSKPAAVCKRRESPEGDSFAVSAAWARKGIEEWIGRQRCPGGVSGPRQLRLAGTIGRSTRELVGDVLRDTLSEEEEDDFRLEVALPPEKTDGLGSGDEKKMERVSEPCPGSKKQLKFEELQCDVSMEEDSRQEWTFTLYDFDNNGKVTREDITSLLHTIYEVVDSSVNHSPTSSKMLRVKLTVAPDGSQSKRSVLVNQADLQSARPRAETKPTEDLRSWEKKQRAPLRFQGDSRLEQSGCYHHCVDENIERRNHYLDLAGIENYTSQFGPGSPSVAQKSELPPRTSNPTRSRSHEPEAIHIPHRKPQGVDPASFHFLDTPIAKVSELQQRLRGTQDGSKHFVRSPKAQGKSVGVGHVARGARNKPPLGPAIPAVSPSAHLAASPALLPSLAPLGHKKHKHRAKESQQGCRGLQAPLASGGPVLGREHLRELPALVVYESQAGQPVQRHEHHHHHEHHHHYHHFYQT”, the “soluble on expression in E. coli” value is reported as “not soluble”. In the case of “MSLKIIIAGAGNVGTHLAKLLSREKQDIILMDDDEEKLSALSANFDLLTVTASPSSISGLKEVGVKEADLFIAVTPDESRNMTACMLATNLGAKKTVARIDNYEYLLPKNKEFFRKLGVDSLIYPEMLAAKEIVSSMRMSWVRQWWEFCGGALILIGTKMREKAEILNIPLHQLGAPDIPYHVVAIKRGTETIIPRGDDVIKLHDIVYFTTTRKYIPYIRKIAGKEDYADVRNVMIMGGSRIAVRTAQYVPDYMQVKIVDNDINRCNRLTELLDDKTMIINGDGRDMDLLIEEGLKNTEAFVALTDNSETNILACLAAKRMGVEKTVAEVENIDYIGMAESLDIGTVINKKMIAASHIYQMMLDADVSNVKCLTFANADVAEFTVPAGAKITKNLIKDLGLPKGTTIGGMIRNGEGVLVTGDTLIRPGDHVVVFCLSMMIKKIEKFFNEGHHHHHH”, the “soluble on expression in E. coli” value is reported as “soluble”. In the case of “MSAYKTVVVGTDGSDSSMRAVDRAAQIAGADAKLIIASAYLPQHEDARAADILKDESYKVTGTAPIYEILHDAKERAHNAGAKNVEERPIVGAPVDALVNLADEEKADLLVVGNVGLSTIAGRLLGSVPANVSRRAKVDVLIVHTT”, the “soluble on expression in E. coli” value is reported as “not soluble”. With “GMEMTKVTGKFDVKLTPENAYATGVGGVNLGRMALDKTFYGELEARSQGEMLSAMTAVKGSAGYVAIEQVVGKLCGRQGSFVLQHFGIMTDGQNRLHLEVVPHSGAGELTGLYGTMAISIENGQHFYEFSFCFEPASEVEG” the “soluble on expression in E. coli” value was “soluble”. In the case of “MNTLVLPKTQHLVVFQEVIRSGSIGSAAKSLGLTQPAVSKIISDVEAYFGVELIVRKNTGVTLTEAGQVLLSWSESITREMKNMINEMNSMTCNTVVDVSFGFPSLIGFTFMSDMIHKFKEVFPKAQVSMYEAQLSSFLPALRDGRLDFAIGTLSNEMQLQDLHVEPLFESEFVLVASKSRTCTGTITLESLKDEQWVLPQTNMGYYSELLTTLQRNGISIENIVKTDSVVTIYNLVLNADFLTVIPCDMTTPFGSNQFITIPIQDTLPVARYAAVWSKNYRIKKAASVLVELAKQYSSYNGCRRRQLIEIE”, the “soluble on expression in E. coli” value is reported as “soluble”. For “MKKEFSAGGVLFKDGEVLLIKTPSNVWSFPKGNIEPGEKPEETAVREVWEETGVKGEILDYIGEIHYWYTLKGERIFKTVKYYLMKYKEGEPRPSWEVKDAKFFPIKEAKKLLKYKGDKEIFEKALKLKEKFKL”, the “soluble on expression in E. coli” value was “soluble”. With “MKKILLCCSAGMSTSMLVKKMQQAAESKGIECKIDALSVNAFEEAIQEYDVCLLGPQVRFQLEELRKTADEYGKNIAAISPQAYGMMKGDEVLQQALDLIN” the “soluble on expression in E. coli” value was “not soluble”. In the case of “MKQKEMIVMSILVKSVSFDDYRNTQLNEKCANFLQSAEMAKLQESQDHIEKVEALVFERDGLRVAQAIVVYKKSFRVFKKALLLHGPLLDYHSSCWFDREILEALILYLRKKNIATLSIHPYLTNLIRNEKLENIEVDKARDVLEVFETLGFEHSLDSEQSLVVNQMFVKSIESFASSDEILAAFSPSLKRDLKKFTALNVKTEELDEHQLDQFYDILSRTAERKGFSVHPLVYFQNLKKYFGKSAKFMLAYLDCPAYLAYLDENIQSFEAKIQDLKEGPQKKRTKGQIADAEDQLRSYYKRLEQFKSYQIKTDKLPLSAYLFMDYGPEIVSFYGGNDEAYLNFGGAVLLHWEMLKYAKSKSKKHFNFYGTIETEAASSGKGNFNFKRQFGGQLETLVGSFDKTLNPFYDILKKTLGKD”, the “soluble on expression in E. coli” value is reported as “not soluble”. In the case of PEKVTVVPKFGDWDENNPSSADGYTHIFNKVREER, the “soluble on expression in E. coli” value is reported as “soluble”. For “MSLNVFDATLKRLEYIFEEFDKVYFSFSGGKDSGLMVQLANLVAEKLDRNFDLLILNIEANYTATVDFIKKIEQLPRVKNIYHFCLPFFEDNNTSFFQPQWKMWDPSEKEKWIHSLPKNAITLENIDDGLKKYYSLSNGNPDRFLRYFQNWYKEQYPQSAISCGVGIRAQESLHRHSAVTKGENKYKNRCWINITLEGNILFYPLFDWKVGDIWAATFKCELEYNYIYEKMYKIGYKYRDMREGHHHHHH”, the “soluble on expression in E. coli” value was “soluble”. For “MGSDKIHHHHHHMSAQTRPAPGRHTIRVSEDDCGLGQFGGGAWLSDAALWPSDPSTGRPMTPIVMLTDLFLPSVWLADDMAVTVFAALGRESDAYNRTALRTFTIHQQSELEKIDAGHSKVVLHRRAAREMVRETVMLPRHFVGLQPFDERDAEEEAEDADNGAGMSKQLGRPYWLQDPIHAHPRHYFLSQFVESDLRQQDPAYDGLFADGTGYLFAEQRAKVLREGDTAGYFFIQFT”, the “soluble on expression in E. coli” value was “not soluble”. For “MSLENKKMEFWFVVGSQHLYGEEALKEVRKNSETIVDELNKSANLPYKIIFKDLATSADKIKEIMKEVNYRDEVAGVITWMHTFSPAKMWIAGTKILQKPLLHFATQYNENIPWKTIDMDYMNLHQSAHGDREYGFINARLKKHNKVVVGYWKDKEVQKQVSDWMKVAAGYIASESIKVARFGDNMRNVAVTEGDKVEAQIQFGWTVDYFGIGDLVAEMDKVSQDEINKTYEEFKDLYILDPGENDPAFYEKQVKEQIKIEIGLRRFLEKGNYNAFTTNFEDLYGMKQLPGLAVQRLNAEGYGFAGEGDWKTAALDRLLKVMTNNTATGFMEDYTYELSRGNEKALGAHMLEVDPTFASDKPKVIVKPLGIGDKEDPARLIFNGSTGKGVAVSMLDLGTHYRLIINGLTAVKPDEDMPNLPVAKMVWKPEPNFIEGVKSWIYAGGGHHTVVSLELTVEQVYDWSRMVGLEAVIIDKDTKLRDIIEKTTEGHHHHHH”, the “soluble on expression in E. coli” value was “soluble”. With “DELCVVCGDKATGYHYRCITCEGCKGFFRRTIQKNLHPSYSCKYEGKCVIDKVTRNQCQECRFKKCIYVGMATDLVLDDSKRLAKRKLIEENREKRRREELEK” the “soluble on expression in E. coli” value was “soluble”. For “MSLEQLATTSQQEILAERPQLTTKIAVDLDVKGIKEKDEDAWQNVQIYLAQINNEYADGSERYQYLVQTTVDKALRAKGYYNSQYQFVKTVSAEQKPLLTLNVQLDNQKVTIDEVDIQLQGDANTDEDFIELKKTAPNQGDSLAHNAYDDFKSHIEGLAFKKGYFDGQWLYHRLEVYPQNHSVDWRLAYDSGKRYRYGEINFIDNQIKEEYLTNILKIAPQQYYYASDLSLMTADYLSSNWFSSVLVEPKLNEKAKLVDLKIFFQPKKKNKVEIGAGFATQLGARLQLNWKKPWLNERGHSIDSRTYLSLPEQTLELGYNVPLRQNPLHYYYQFSGSLEHQNQQDTKSIAGSFGLQRFWTHETGWSFSAGIKSRYDSFTQANDKHKTLLVYPTAALNRTQTDGNRFPLWGDSQRITVNWGAKIFGSDVSFYSWKASSTWVRTYLDRHRLFLRGEVGQVHTKDFHQIPPTLRYFAGGDMSIRGFAYKSISPKEPKSGKLIGGSHLVTTTAEYQYRIYPDWWAAIFYDTGLVSDKFDHRALHSGAGVGVRWISPIGAIKFDIATPVKSPNNKRGVQFYIGLGSEEGHHHHHH”, the “soluble on expression in E. coli” value was “not soluble”. In the case of “MVKESIPKEGENIKIQSYKHDGNIHRVWSETTILKGTEHVIIGGNDHTLVTESDGRTWITREPAIVYFHSEYWFNVICMFREDGIYYYCNLSSPFACDEEALKYIDYDLDIKVYPNGKYHLLDEDEYEQHMNQMNYPHDIDIILRRNVDILQQWIEQKKGPFAPDFIKVWKERYKKIRDY”, the “soluble on expression in E. coli” value is reported as “not soluble”. For “MGSDKIHHHHHHMEKFGLKALVPLLKLEDKELSSTYDHSMTLGADLSSMLYSLGIPRDSQDHRVLDTFQSPWAETSRSEVEPRFFTPESFTNIPGVLQSTVTPPCFNSIQNDQQRVALFQDETLFFLFYKHPGTVIQELTYLELRKRNWRYHKTLKAWLTKDPMMEPIVSADGLSERGSYVFFDPQRWEKCQRDFLLFYNAIM”, the “soluble on expression in E. coli” value was “not soluble”. For “MGSDKIHHHHHHMQPDVRHSPKEAFEFAANNGFTHVEILMDHPLYSLENLSFAEVIELKWSYDLDLLIHAPATSTNFISISNEMRKASYKEMSKVCYFAEKCGAEVVTFHIGWNPAFINNGNFYFNKSLFDRHNESVLLNEFLPFVKTCPVQLALENTIMIEDGLERALNEIMGKTTLGLTIDVGHYNIRENPFFLKNFDRVVNMHLHDNDGTADQHLALGRGTVDLSKFNLNRYTGFLTIETREEKSIIESRDYLMRVIV”, the “soluble on expression in E. coli” value was “not soluble”. With “MMEYKIVENGLTYRIGNGASVPISNTGELIKGLRNYGPYEVPSLKYNQIALIHNNQFSSLINQLKSQISSKIDEVWHIHNINISEFIYDSPHFDSIKSQVDNAIDTGVDGIMLVLPEYNTPLYYKLKSYLINSIPSQFMRYDILSNRNLTFYVDNLLVQFVSKLGGKPWILNVDPEKGSDIIIGTGATRIDNVNLFCFAMVFKKDGTMLWNEISPIVTSSEYLTYLKSTIKKVVYGFKKSNPDWDVEKLTLHVSGKRPKMKDGETKILKETVEELKKQEMVSRDVKYAILHLNETHPFWVMGDPNNRFHPYEGTKVKLSSKRYLLTLLQPYLKRNGLEMVTPIKPLSVEIVSDNWTSEEYYHNVHEILDEIYYLSKMNWRGFRSRNLPVTVNYPKLVAGIIANVNRYGGYPINPEGNRSLQTNPWFL” the “soluble on expression in E. coli” value was “soluble”. In the case of “MTITSGIDVGTGAIKVVVFEVDGDQERCLGKRVERVRQRDPLKLAGDIYDDLLRETGLARADVAYCATTGEGESLTFHTGHFYSMTTHARGAIYLNPGSRAVLDTGALHGRAIRMDERGKVLAYKMTSQCASGSGQFLENIARYLGIAQDEIGSLSQRADNPEKVSGICAVLAETDVINMVSRGISSPNILRGIHESMADRLAKLLKTLGSLDGTVQMTGGLALDAGLVEAMKDAVVKAKVDVAIESHPDAIYAGAIGAALWGAFRHKRLADMAHAA”, the “soluble on expression in E. coli” value is reported as “not soluble”. In the case of “MSERILPSTLRGVTNGQKEVTASVGERVPLLPRRFSARPQGNQEAQERTAVKCEQVRYAIQEVIGRGAFGEVSSAEVVGTRDLVAIKRVIHDGRLRQRELTLMRDHLGPNTQQGGVSSLDVGNGVGAHATSVTGSNGEEANGTTAIDGLESWNMPTIVPYHPCVVKLLDHFFASDPSGVQYLFMVMDYIPLDVRRLHHMFLRQREQQMPIILVKVIMFQLARALAFLHARGICHRDVKPNNILVDQETGVVKLCDFGSAKKMQAVGGEGPREKNVPYIFSRYYRAPELLLGSQYYHFHVDMWAFGCVLAELLCGKVLFKGSSSTMDQLVEIIKVLGKPSERELFALNPQSAGSALIRTWGDSHNASQLSPTPSGPLPSSNSANADYMQRRSAPRVKSLLWVEVLPPNTSQAALSLIEQLLRYTPEERLTSAEVLEHVFFDELFSDDARLPNGAPLPASMFQVTREEAEILPPWLLERMAAAEGVAKGRELNQSATAPENAI”, the “soluble on expression in E. coli” value is reported as “not soluble”.
